Data set [1] deals with T1, XPF S767F;ERCC1 wild type (hsERCC1) (Xenopus laevis;Homo sapiens?, UniProt A0A8J0PXV9;P07992 1-897;1-297, S767F|).
T1 sequence 1: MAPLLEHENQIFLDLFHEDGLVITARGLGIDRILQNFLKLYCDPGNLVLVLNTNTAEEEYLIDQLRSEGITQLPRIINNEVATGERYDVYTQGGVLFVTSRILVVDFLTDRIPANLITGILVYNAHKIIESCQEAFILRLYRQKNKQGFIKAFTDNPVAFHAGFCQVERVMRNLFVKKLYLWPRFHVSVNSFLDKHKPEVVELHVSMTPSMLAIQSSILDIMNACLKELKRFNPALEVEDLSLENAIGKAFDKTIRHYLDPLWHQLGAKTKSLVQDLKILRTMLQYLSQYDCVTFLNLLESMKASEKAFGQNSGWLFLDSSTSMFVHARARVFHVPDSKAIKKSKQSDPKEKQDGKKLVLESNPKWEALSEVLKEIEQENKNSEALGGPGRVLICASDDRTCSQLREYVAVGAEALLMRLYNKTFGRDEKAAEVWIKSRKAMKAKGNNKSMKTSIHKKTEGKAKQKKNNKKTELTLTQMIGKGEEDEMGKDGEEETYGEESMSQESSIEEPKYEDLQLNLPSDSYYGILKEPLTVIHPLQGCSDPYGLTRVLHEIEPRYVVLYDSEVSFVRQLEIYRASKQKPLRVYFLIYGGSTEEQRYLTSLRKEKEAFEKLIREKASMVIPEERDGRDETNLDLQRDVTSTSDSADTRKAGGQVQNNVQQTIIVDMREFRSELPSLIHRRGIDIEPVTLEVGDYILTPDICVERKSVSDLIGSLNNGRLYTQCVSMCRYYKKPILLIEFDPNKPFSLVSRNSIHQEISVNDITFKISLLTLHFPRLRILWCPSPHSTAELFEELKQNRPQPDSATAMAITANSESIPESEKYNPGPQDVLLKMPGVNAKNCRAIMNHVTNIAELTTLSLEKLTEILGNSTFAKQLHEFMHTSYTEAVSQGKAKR
T1 sequence 2: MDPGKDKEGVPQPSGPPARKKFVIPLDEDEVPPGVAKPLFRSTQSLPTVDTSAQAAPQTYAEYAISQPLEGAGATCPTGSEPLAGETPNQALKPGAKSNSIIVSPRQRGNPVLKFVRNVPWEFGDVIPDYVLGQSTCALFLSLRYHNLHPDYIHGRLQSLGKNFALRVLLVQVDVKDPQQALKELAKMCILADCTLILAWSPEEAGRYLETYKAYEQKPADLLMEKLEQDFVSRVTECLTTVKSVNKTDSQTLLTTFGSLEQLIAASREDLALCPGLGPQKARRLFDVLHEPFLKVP
Kind of data set: fluorescence anisotropy; 2 mM Ca2+; comparable to wild type; 25 mM Hepes pH 8.0, 15% glycerol, 0.1 mg/ml BSA, 2 mM CaCl2, 10 nM DNA, 1 h at room temperature. The following applies: protein: recombinant;recombinant; tags: FLAG;His; copies: 1;1; label: 5'-FAM on F1; three strands 1:1:1. For orientation: Polarisation of emitted light reports the rotation of a fluorescent probe.

Data set [2] concerns the target T2, XPF G314E;ERCC1 wild type (hsERCC1) (Xenopus laevis;Homo sapiens?, UniProt A0A8J0PXV9;P07992 1-897;1-297, G314E|).
T2 sequence 1: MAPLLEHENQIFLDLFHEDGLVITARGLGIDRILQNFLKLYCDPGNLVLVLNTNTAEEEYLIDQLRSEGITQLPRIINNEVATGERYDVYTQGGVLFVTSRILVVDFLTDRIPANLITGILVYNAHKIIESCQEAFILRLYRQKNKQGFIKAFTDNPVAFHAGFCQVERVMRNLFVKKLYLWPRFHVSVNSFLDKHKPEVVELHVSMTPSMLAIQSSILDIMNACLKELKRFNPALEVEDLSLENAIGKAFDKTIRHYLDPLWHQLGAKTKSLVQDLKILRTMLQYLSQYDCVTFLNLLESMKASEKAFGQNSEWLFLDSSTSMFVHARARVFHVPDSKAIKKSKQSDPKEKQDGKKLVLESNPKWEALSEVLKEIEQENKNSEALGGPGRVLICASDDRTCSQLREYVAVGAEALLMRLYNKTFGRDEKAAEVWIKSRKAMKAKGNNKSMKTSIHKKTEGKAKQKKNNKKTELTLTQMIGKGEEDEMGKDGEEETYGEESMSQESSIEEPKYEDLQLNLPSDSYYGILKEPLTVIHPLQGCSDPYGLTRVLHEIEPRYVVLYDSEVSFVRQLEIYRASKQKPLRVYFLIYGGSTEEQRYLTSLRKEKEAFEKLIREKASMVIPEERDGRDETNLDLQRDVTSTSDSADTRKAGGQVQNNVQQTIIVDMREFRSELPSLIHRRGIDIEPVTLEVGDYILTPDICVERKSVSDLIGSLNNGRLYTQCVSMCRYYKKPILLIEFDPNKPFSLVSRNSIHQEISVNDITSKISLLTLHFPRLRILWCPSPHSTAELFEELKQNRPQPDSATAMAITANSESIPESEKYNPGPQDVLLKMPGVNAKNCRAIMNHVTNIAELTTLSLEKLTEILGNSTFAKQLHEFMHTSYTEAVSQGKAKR
T2 sequence 2: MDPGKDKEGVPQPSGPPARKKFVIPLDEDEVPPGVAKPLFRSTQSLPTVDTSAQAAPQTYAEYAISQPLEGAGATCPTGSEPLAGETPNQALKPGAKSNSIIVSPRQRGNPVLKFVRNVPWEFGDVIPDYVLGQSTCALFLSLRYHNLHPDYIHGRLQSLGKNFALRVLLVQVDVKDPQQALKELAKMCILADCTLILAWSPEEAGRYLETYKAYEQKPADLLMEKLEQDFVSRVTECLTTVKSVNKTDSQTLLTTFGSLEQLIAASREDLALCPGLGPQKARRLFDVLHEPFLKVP
The description is as above. The following applies: protein: recombinant;recombinant; tags: FLAG;His; copies: 1;1; label: 5'-FAM on F1; three strands 1:1:1.

B1: 3' flap DNA substrate (F1+F2+F3) (dsDNA)
DNA 1: CGCGATGCGGATCCAA
DNA 2: CCTAGACTTAAGAGGCCAGACTTGGATCCGCATCGC
DNA 3: GGCCTCTTAAGTCTAGG
As for B1, the binding result in data set [1] and in data set [2] was “binds” each time.

The values above are taken from publication PMC5510004, “Recruitment and positioning determine the specific role of the XPF‐ERCC1 endonuclease in interstrand crosslink repair”.
